Assay results from patent US20250195629A1, “SITE-SPECIFIC BRAIN THERAPEUTICS” (William Marsh Rice University, priority 2023, published 2025).

Tests used:
mice = assay: Weekly repeated RAID open field test over three weeks; assay type: in vivo, mouse
Excerpt: FIG. 15 includes data related to protein delivery and behavioral testing protocol repeated weekly over a course of three weeks. FIG. 15a illustrates weekly RAID-induced behavioral modulation including a first counterclockwise rotations graph measured in the open field test before and after administration of L-DOPA. FIG. 15b illustrates weekly RAID-induced behavioral modulation including a second counterclockwise rotations graph measured in the open field test before and after administration of L-DOPA. FIG. 15c illustrates weekly RAID-induced behavioral modulation including a first clockwise rotations graph measured in the open field test before and after administration of L-DOPA. FIG. 15d illustrates weekly RAID-induced behavioral modulation including a second clockwise rotations graph measured in the open field test before and after administration of L-DOPA. Data is presented as mean±s.e.m. n=7 mice for FUS alone group and n=14, 13, and 11 mice for the FUS+mAADC-IKVAV (SEQ ID NO: 23) group in weeks 1, 2, and 3, respectively; *P<0.05, **P<0.01, ns (not significant), using Two-way ANOVA with Sidak's multiple comparison test.
Locomotor behavior test—Two groups of mice underwent FUS-BBBO targeting two sites at left striatum immediately after intravenous injection of recombinant protein AADC-IKVAV (SEQ ID NO: 23) (n=14 mice for FUS+AADC-IKVAV group, 20 mg/mL, 250 mg/kg) or equivalent volume of PBS buffer (n=11 mice for FUS alone group). Another group without FUS-BBBO procedure served as wild type control (n=12 mice for WT group). After 46 h, the first session of behavioral test was performed in a custom-made non-transparent open field box (30.5 cm×30.5 cm) as a baseline. Each mouse was individually placed into the apparatus center with a light intensity and background noise at ˜320 lux and 46 dB (400 Hz peak), respectively. After a habituation period of 5 min, the locomotor activity of a freely-moving mouse was recorded for 15 min by a video tracking system (Stoelting Co.) consisting of an overhead camera connected to a computer with Any-Maze software. […]

[1] = AADC immunostaining, AADC-IKVAV retention and spatial targeting after FUS-BBBO; assay type: in vivo, mouse; conditions: for local AADC levels (AADC+ pixels) in FUS-targeted region vs FUS alone control group: 250 mg/kg i.v., one FUS site left CPu, 2 days
Protocol: c-Fos […] injection of recombinant protein AADC-IKVAV (SEQ ID NO: 23) (20 mg/mL, 250 mg/kg) or equivalent volume of PBS buffer (n=5 mice for FUS alone+L-DOPA group). After 48 h, the mice were given a single dose of L-DOPA (0.1 mg/mL, 2 mg/kg, i.p.; Spectrum Chemical) 10 min after injection of carbidopa (1 mg/mL, 25 mg/kg, i.p.; Sigma-Aldrich), both of which were dissolved in sterile saline containing 2.5 and 0.125 mg/mL ascorbic acid. […] After 2 hours, the mice were euthanized by transcardial perfusion, and their brains were extracted and sliced into 50 μm coronal sections following 24-48 hours of fixation.
Immunostaining of AADC was performed as follows: (1) incubate the brain sections in 1× antigen retrieval solution (catalog number: 00-4955-58; Invitrogen) overnight in a 60° C. water bath; (2) block sections in 5% normal goat serum (SouthernBiotech) and 0.3% Triton-X solution in PBS for 1 h at room temperature; (3) incubate with primary rabbit anti-AADC antibody (1:500, 10166-1-AP, Proteintech) for staining AADC-IKVAV (SEQ ID NO: 23) in blocking buffer for 2 h at room temperature; (4) after washing three times in PBS (15 min each, the same as below), incubate with secondary goat anti-rabbit antibody conjugated to Alexa Fluor 647 (1:750, A-21245, ThermoFisher) in blocking buffer for 2 h at room temperature; (5) after washing three times, mount sections onto glass slides using the mounting media (Vector Laboratories) with DAPI and air-dry overnight in dark before imaging.
To analyze AADC-IKVAV (SEQ ID NO: 23) retention, as depicted in FIG. 7 and FIG. 11, stained coronal sections within the striatum were captured using a ×4 objective in DAPI (nuclei, not shown) and far-red (AADC) channels. Among these sections, the one displaying the most intense AADC fluorescence was chosen as the representative for each mouse. Subsequently, the selected sections were further examined at a higher magnification (×40 objective) for quantitative comparison. […] This area was imaged using a ×40 objective. Additionally, corresponding contralateral areas in the right striatum were also imaged.
To quantify the AADC-IKVAV (SEQ ID NO: 23) retention in the FUS targeted region, as shown in FIG. 7 and FIG. 11, the histological images were analyzed using ImageJ (version 1.53t). Specifically, the average pixel intensity of the AADC-IKVAV (SEQ ID NO: 23) channel image captured on the contralateral side of each representative section was calculated to establish the background for that section.
Immediately afterwards, the mice were sacrificed for immunohistochemical analysis of AADC-IKVAV (SEQ ID NO: 23) retention as already mentioned. The section displaying the strongest AADC fluorescence was selected as the representative for each mouse, and its adjacent section was stained separately to identify c-Fos positive cells. […]

[2] = behavior study, FUS+AADC-IKVAV+L-DOPA, two FUS sites

Molecule	reduction in clockwise rotations after L-DOPA (mice; week 1, FUS-alone group) [%]	reduction in counter-clockwise (ipsilateral) rotations after L-DOPA (mice; week 1, control mice receiving FUS alone)	clockwise rotations after L-DOPA (mice; week two, FUS-alone control group)	local AADC levels (AADC+ pixels) in FUS-targeted region vs FUS alone control group ([1]; with subsequent L-DOPA 2 mg/kg i.p.)	local AADC levels (AADC+ pixels) in FUS-targeted region vs FUS alone control group ([1]; without L-DOPA)	mice with detectable retention within the CPu ([1]; 11 mice receiving AADC-IKVAV) [%]	levels of local AADC (AADC+ pixels, left CPu) vs FUS alone group [1, 2]	levels of local AADC (AADC+ pixels, left CPu) vs untreated group [1, 2]	presence of delivered enzyme in the FUS-targeted area by immunostaining ([1]; behavior study, two FUS sites, 2 days after delivery)	mice with efficient retention within 100 μm of the CPu ([1]; remaining mice of 11) [%]
N[C@@H](Cc1ccc(O)c(O)c1)C(=O)O [L-DOPA, reference compound]	53±18	not observed	no significant effects	–	–	–	–	–	–	–
AADC-IKVAV: aromatic-L-amino-acid decarboxylase (AADC) protein fused with short peptide IKVAV (SEQ ID NO: 23); CDS SEQ ID NO: 21 (protein, misc_feature 1..1602 Synthetic: AADC-IKVAV) MRGSHHHHHHGMASMTGGQQMGRDLYDDDDKDPMNASEFRRRGKEMVDYMANYMEGIEGRQVYPDVEPGYLRPLIPAAAPQEPDTFEDIINDVEKIIMPGVTHWHSPYFFAYFPTASSYPAMLADMLCGAIGCIGFSWAASPACTELETVMMDWLGKMLELPKAFLNEKAGEGGGVIQGSASEATLVALLAARTKVIHRLQAASPELTQAAIMEKLVAYSSDQAHSSVERAGLIGGVKLKAIPSDGNFAMRASALQEALERDKAAGLIPFFMVATLGTTTCCSFDNLLEVGPICNKEDIWLHVDAAYAGSAFICPEFRHLLNGVEFADSFNFNPHKWLLVNFDCSAMWVKKRTDLTGAFRLDPTYLKHSHQDSGLITDYRHWQIPLGRRFRSLKMWFVFRMYGVKGLQAYIRKHVQLSHEFESLVRQDPRFEICVEVILGLVCFRLKGSNKVNEALLQRINSAKKIHLVPCHLRDKFVLRFAICSRTVESAHVQRAWEHIKELAADVLRAEREGGSGSSGGSGGSGGSGIKVAV	–	–	–	38.5 (±6.1) fold	41.8 (±8.9) fold	73	13.3 (±2.8) fold	93.3(±19.5) fold	present in the FUS-targeted area in all mice	27
